Where two headings read alike, the source gives them in different places.
Assays:
[1] = target: Biotinylated avi-tagged human TβRI (human) (UniProt P36897); test: SPR
[2] = target: Mouse CD44 extracellular domain (mouse) (UniProt P15379); test: ITC
[3] = target: Human CD44 extracellular domain (human) (UniProt P16070); test: ITC
[4] = target: Biotinylated avi-tagged human TβRII (human) (UniProt P37173); test: SPR
[5] = target: Biotinylated avi-tagged human TβRI (human) (UniProt P36897); test: SPR; remark: listed apart in the source

Chain of UniProt P36897 (P36897 34-126): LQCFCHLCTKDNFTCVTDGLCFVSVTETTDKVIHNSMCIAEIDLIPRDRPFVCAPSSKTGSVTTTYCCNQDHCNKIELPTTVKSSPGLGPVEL
Chain of UniProt P15379 (P15379 23-685): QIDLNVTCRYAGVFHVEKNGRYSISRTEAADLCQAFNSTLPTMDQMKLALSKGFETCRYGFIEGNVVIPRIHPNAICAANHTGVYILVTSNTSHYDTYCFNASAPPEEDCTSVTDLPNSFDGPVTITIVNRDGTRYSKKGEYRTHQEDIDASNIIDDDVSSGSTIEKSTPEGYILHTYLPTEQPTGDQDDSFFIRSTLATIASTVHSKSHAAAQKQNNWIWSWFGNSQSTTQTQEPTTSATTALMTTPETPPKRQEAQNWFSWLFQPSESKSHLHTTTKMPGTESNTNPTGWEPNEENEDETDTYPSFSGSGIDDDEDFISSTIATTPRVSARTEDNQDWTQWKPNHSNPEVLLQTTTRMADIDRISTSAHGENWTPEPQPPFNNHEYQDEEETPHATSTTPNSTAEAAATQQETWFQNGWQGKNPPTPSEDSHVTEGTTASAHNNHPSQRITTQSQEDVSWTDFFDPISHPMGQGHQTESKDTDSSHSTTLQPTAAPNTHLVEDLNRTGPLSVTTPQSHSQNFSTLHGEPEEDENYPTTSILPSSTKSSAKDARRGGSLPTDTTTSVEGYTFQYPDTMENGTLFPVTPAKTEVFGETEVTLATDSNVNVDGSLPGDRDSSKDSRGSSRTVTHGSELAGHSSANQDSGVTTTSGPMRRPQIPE
Chain of UniProt P16070 (P16070 21-649): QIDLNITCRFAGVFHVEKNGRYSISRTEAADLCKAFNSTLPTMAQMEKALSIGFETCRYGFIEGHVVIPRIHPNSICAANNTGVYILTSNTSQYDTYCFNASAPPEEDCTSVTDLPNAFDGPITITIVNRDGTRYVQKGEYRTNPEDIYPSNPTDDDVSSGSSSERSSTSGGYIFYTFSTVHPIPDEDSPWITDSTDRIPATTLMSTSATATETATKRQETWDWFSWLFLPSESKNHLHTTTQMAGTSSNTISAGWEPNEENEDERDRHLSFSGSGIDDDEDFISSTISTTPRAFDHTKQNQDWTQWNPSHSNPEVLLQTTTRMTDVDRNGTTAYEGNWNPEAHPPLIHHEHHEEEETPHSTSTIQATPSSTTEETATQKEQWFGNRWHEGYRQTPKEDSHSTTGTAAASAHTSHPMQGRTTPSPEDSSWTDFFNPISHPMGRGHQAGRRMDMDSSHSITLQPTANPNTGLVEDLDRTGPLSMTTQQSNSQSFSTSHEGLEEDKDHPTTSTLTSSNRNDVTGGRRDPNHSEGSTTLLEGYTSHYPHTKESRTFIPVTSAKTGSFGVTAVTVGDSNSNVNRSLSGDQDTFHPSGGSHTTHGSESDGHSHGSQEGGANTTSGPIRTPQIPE
Chain of UniProt P37173 (P37173 23-166): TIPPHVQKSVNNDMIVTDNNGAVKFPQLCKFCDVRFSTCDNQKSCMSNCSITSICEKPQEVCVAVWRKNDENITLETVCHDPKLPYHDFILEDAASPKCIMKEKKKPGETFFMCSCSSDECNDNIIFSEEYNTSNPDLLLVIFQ

| Kd [1] [nM] | Kd [4] [nM] | Kd [5] [nM] | Substance | Kd [2] [nM] | Kd [3] [nM] |
| --- | --- | --- | --- | --- | --- |
| 70 | – | – | TGM1 full-length recombinant protein (natural protein) | – | – |
| – | – | – | TGM1 D4-5 fragment (domain or fragment) | 62 | 140 |
| 3.2 | 116000 | 3 to 5 | TGM4 full-length recombinant protein (natural protein) | – | – |
| – | – | – | TGM4 D4-5 recombinant protein (domain or fragment) | 20 | 56 |
